Data published in paper PMC3280929, “Engineered Trx2p industrial yeast strain protects glycolysis and fermentation proteins from oxidative carbonylation during biomass propagation” (Microbial Cell Factories, 2012).
Where “and” joins values, the source holds several entries; their conditions need not be identical. Equal entries are not always repeated.

Target: the molecule itself
Assay: SDS-PAGE and anti-Adh1p western blot of SDS-resistant oligomers; crude extracts of T73 cells (dehydrated, grown 5 h in YPGF, or fresh with or without 5 mM glyoxal), 10% SDS-polyacrylamide gel under denaturing conditions, polyclonal anti-Adh1p

B1: alcohol dehydrogenase I (Adh1p) (enzyme, S. cerevisiae (endogenous in strain T73), UniProt P00330 1-348, looked up)
chain: MSIPETQKGVIFYESHGKLEYKDIPVPKPKANELLINVKYSGVCHTDLHAWHGDWPLPVKLPLVGGHEGAGVVVGMGENVKGWKIGDYAGIKWLNGSCMACEYCELGNESNCPHADLSGYTHDGSFQQYATADAVQAAHIPQGTDLAQVAPILCAGITVYKALKSANLMAGHWVAISGAAGGLGSLAVQYAKAMGYRVLGIDGGEGKEELFRSIGGEVFIDFTKEKDIVGAVLKATDGGAHGVINVSVSEAAIEASTRYVRANGTTVLVGMPAGAKCCSDVFNQVVKSISIVGSYVGNRADTREALDFFARGLVKSPIKVVGLSTLPEIYEKMEKGQIVGRYVVDTSK
modifications: oxidative carbonylation of the dimer, tetramer and higher bands (residues not stated)
notes: Alcohol dehydrogenase I (Adh1p) of Saccharomyces cerevisiae, subunit of approximately 37 kDa; Endogenous protein of an industrial wine strain; source: endogenous, S. cerevisiae wine strain T73 (and TTRX2), crude cell extracts
stoichiometry N: 2 and 4
